# From US20250066745A1, “MUTANTS AND USE THEREOF” (BGI SHENZHEN, priority 2021, published 2025)
# Substitutions are numbered along the chain they refer to. Names may count otherwise.
# B1: F26I N27D V29D A30G A32E S33G A36T L40S del117-119 D139H: Gaussia luciferase mutant (protein)
# chain: MGVKVLFALICIAVAEAKPTENNEDIDIDGVEGNFTTTDSDADRGKLPGKKLPLEVLKEMEANARKAGCTRGCLICLSHIKCTPKMKKFIPGRCHTYEGDKESAQGGIGEAIVDIPGFKDLEPMEQFIAQVDLCVHCTTGCLKGLANVQCSDLLKKWLPQRCATFASKIQGQVDKIKGAGGD
# modifications: SIGNAL (1)..(17)
# notes: Gaussia luciferase mutant
# B2: A17V H79K P84A E102D S103T E110P L124M: Gaussia luciferase mutant (protein)
# chain: MGVKVLFALICIAVAEVKPTENNEDFNIVAVASNFATTDLDADRGKLPGKKLPLEVLKEMEANARKAGCTRGCLICLSKIKCTAKMKKFIPGRCHTYEGDKDTAQGGIGPAIVDIPEIPGFKDMEPMEQFIAQVDLCVDCTTGCLKGLANVQCSDLLKKWLPQRCATFASKIQGQVDKIKGAGGD
# modifications: SIGNAL (1)..(17)
# notes: Gaussia luciferase mutant
# B3: F26R N27D V29D A30G A32D S33N T37A L40P: Gaussia luciferase mutant (protein)
# chain: MGVKVLFALICIAVAEAKPTENNEDRDIDGVDNNFAATDPDADRGKLPGKKLPLEVLKEMEANARKAGCTRGCLICLSHIKCTPKMKKFIPGRCHTYEGDKESAQGGIGEAIVDIPEIPGFKDLEPMEQFIAQVDLCVDCTTGCLKGLANVQCSDLLKKWLPQRCATFASKIQGQVDKIKGAGGD
# modifications: SIGNAL (1)..(17)
# notes: Gaussia luciferase mutant
# B4: F26I V29F A30G A32E S33D A36N T37D L40T: Gaussia luciferase mutant (protein)
# chain: B3 chain with R26I, D27N, D29F, D32E, N33D, A36N, A37D, P40T
# modifications: SIGNAL (1)..(17)
# notes: Gaussia luciferase mutant
# B5: F26G N27Y A30D V31L A32V S33R A36M T37E L40G: Gaussia luciferase mutant (protein)
# chain: B3 chain with R26G, D27Y, D29V, G30D, V31L, D32V, N33R, A36M, A37E, P40G
# modifications: SIGNAL (1)..(17)
# notes: Gaussia luciferase mutant
# B6: F26R N27Y V29E A30G A32D S33R A36G T37M L40P: Gaussia luciferase mutant (protein)
# chain: B3 chain with D27Y, D29E, N33R, A36G, A37M
# modifications: SIGNAL (1)..(17)
# notes: Gaussia luciferase mutant
# B7: F26R N27D V29E A30G V31I A32D S33N A36N T37A L40R: Gaussia luciferase mutant (protein)
# chain: B3 chain with D29E, V31I, A36N, P40R
# modifications: SIGNAL (1)..(17)
# notes: Gaussia luciferase mutant
# B8: F26I N27H V29G A32G S33D A36G T37L L40I: Gaussia luciferase mutant (protein)
# chain: B3 chain with R26I, D27H, D29G, G30A, D32G, N33D, A36G, A37L, P40I
# modifications: SIGNAL (1)..(17)
# notes: Gaussia luciferase mutant
# B9: F26L N27D A30D V31L A32V S33N A36N T37A L40S: Gaussia luciferase mutant (protein)
# chain: B3 chain with R26L, D29V, G30D, V31L, D32V, A36N, P40S
# modifications: SIGNAL (1)..(17)
# notes: Gaussia luciferase mutant
# B10: F26L N27D V29P A30G V31I A32G S33A A36T T37C L40E I112T: Gaussia luciferase mutant (protein)
# chain: B3 chain with R26L, D29P, V31I, D32G, N33A, A36T, A37C, P40E, I112T
# modifications: SIGNAL (1)..(17)
# notes: Gaussia luciferase mutant
# B11: F26I N27D V29S A30G V31L A32V S33D A36V T37E L40G: Gaussia luciferase mutant (protein)
# chain: B3 chain with R26I, D29S, V31L, D32V, N33D, A36V, A37E, P40G
# modifications: SIGNAL (1)..(17)
# notes: Gaussia luciferase mutant
# B12: F26L N27D V29A V31L A32D S33N T37E L40T: Gaussia luciferase mutant (protein)
# chain: B3 chain with R26L, D29A, G30A, V31L, A37E, P40T
# modifications: SIGNAL (1)..(17)
# notes: Gaussia luciferase mutant
# B13: F26R V29E A30G V31L A36D T37E L40S K159: Gaussia luciferase mutant (protein)
# chain: B3 chain with D27N, D29E, V31L, D32A, N33S, A36D, A37E, P40S
# B14: F26L N27D V29D A30G S33N A36I T37D L40R: Gaussia luciferase mutant (protein)
# chain: B3 chain with R26L, D32A, A36I, A37D, P40R
# modifications: SIGNAL (1)..(17)
# notes: Gaussia luciferase mutant
# B15: F26I A30D A32V S33G A36D T37K L40V: Gaussia luciferase mutant (protein)
# chain: B3 chain with R26I, D27N, D29V, G30D, D32V, N33G, A36D, A37K, P40V
# modifications: SIGNAL (1)..(17)
# notes: Gaussia luciferase mutant
# Assay: Luminescence activity assay of purified Gaussia luciferase mutants on coelenterazine
# Format: biochemical
# Parameters: key to Activity of mutant relative to wild-type Gaussia luciferase without the signal peptide: ratio of mutant luminescence intensity to wild-type Gaussia luciferase
# Conditions: Substrate CTZ (Table 16)
# Procedure, shortened: (§1)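 Readout: luminescence intensity, as ratio to signal-peptide-free wild-type enzyme. Enzyme 1 μg/mL, substrate 100 μM stock, 10 μL + 90 μL; buffer 50 mM Tris-HCl pH 8.0, 100 mM NaCl, 0.1% Tween-20.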
row,Activity of mutant relative to wild-type Gaussia luciferase without the signal peptide,Molecule
1,0.043,B1
2,0.198,B2
3,0.031,B3
4,1.120,B4
5,0.003,B5
6,0.152,B6
7,0.053,B7
8,0.055,B8
9,0.799,B9
10,0.001,B10
11,0.788,B11
12,0.000,B12
13,0.000,B13
14,0.726,B14
15,0.636,B15

# Assay: Luminescence activity assay of purified Gaussia luciferase mutants on fluoro-coelenterazine
# Format: biochemical
# Parameters: key to Activity of mutant relative to wild-type Gaussia luciferase without the signal peptide: ratio of mutant luminescence intensity to wild-type Gaussia luciferase
# Conditions: Substrate f-CTZ (Table 16)
# Protocol: In this Example, the protein concentration was determined with a BCA quantitative kit (Thermo Scientific™ Pierce™ BCA Protein Assay Kit) accurately. The purified luciferase obtained in Example 5 was diluted with diluent (50 mM Tris-HCl, pH 8.0, 100 mM NaCl, 0.1% (v/v) Tween-20) to 1 μg/mL. The diluted luciferase, taken for 10 μL, was moved into a black 96-well plate, then added with 90 μL of the substrates coelenterazine, fluoro-coelenterazine or coelenterazine derivative ZS2 (purchased from Biolab) which was diluted into 100 μM with the same diluent, and the luminescence intensity of the plate was read with a self-luminescence module of a microplate reader. The mutation site of the mutant, the measured luminescence intensity, the ratio of luminescence intensities of the advantageous mutants to the wild-type Gaussia luciferase without the signal peptide having the sequence shown in SEQ ID NO: 3 are shown in Table 15. The results of catalytic activity assay of the advantageous mutants relative to the wild-type Gaussia luciferase without the signal peptide having the sequence shown in SEQ ID NO: 3 on substrate coelenterazine are shown in FIG. 6. […] The results of catalytic activity assay of the advantageous mutants relative to the wild-type Gaussia luciferase without the signal peptide having the sequence shown in SEQ ID NO: 3 on substrate fluoro-coelenterazine are shown in FIG. 7.
# The new mutant library constructed in Example 7 was screened and tested for substrate specificity. Expression and purification schemes were the same as that in Example 5, and the activity assay scheme was the same as that in Example 6. The respective catalytic activities of combinatorial mutants on coelenterazine, fluoro-coelenterazine or coelenterazine derivative ZS2, and coelenterazine derivative ZS26 (purchased from BIOLAB) were assayed, and comparisons among the substrate specificities of the combinatorial mutants were based on the ratios of catalytic activities on two corresponding substrates.
row,Activity of mutant relative to wild-type Gaussia luciferase without the signal peptide,Molecule
1,0.763,B2
2,0.049,B3
3,0.172,B6
4,0.067,B7
5,0.009,B13

# Assay: Luminescence activity assay of purified Gaussia luciferase mutants on coelenterazine derivative ZS2
# Format: biochemical
# Parameters: key to Activity of mutant relative to wild-type Gaussia luciferase without the signal peptide: ratio of mutant luminescence intensity to wild-type Gaussia luciferase
# Conditions: Substrate ZS2 (Table 16)
# Procedure, shortened: as §1
row,Activity of mutant relative to wild-type Gaussia luciferase without the signal peptide,Molecule
1,0.010,B1
2,0.082,B2
3,0.031,B3
4,0.000,B4
5,1.203,B5
6,0.147,B6
7,0.044,B7
8,0.479,B8
9,1.802,B9
10,0.395,B10
11,2.094,B11
12,0.191,B12
13,0.001,B13
14,1.989,B14
15,2.392,B15
